The target of experiment [1] is huNav1.7α + β1 (human). Put plainly: cell-based or functional assay.
In experiment [2] the target is T1, huNav1.7α (human, UniProt Q15858 1-1988).
T1 construct: HEK cells expressing the α subunit alone; also called HEKa; HEK huNav1.7α
Put plainly: binding FACS, HEKa cells. Summed up:
(§1)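 Assessment used purified FLAG3-tagged ISVD incubated on cells for 30 minutes at 4° C in PBS containing 10% FBS and NaN₃, with cells washed between steps. Propidium iodide (1 μg/mL) staining removed dead cells from analysis.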

The target in another experiment is T2, huNav1.2α (human, UniProt Q99250 1-2005).
T2 construct: also called huNav1.2 (alpha subunit)
Put plainly: binding FACS on stable huNav1.x paralog HEK293T cell lines.

Another experiment has as its target huNav1.1α (human, UniProt P35498 1-2009). The description is as above.
The target of a further experiment is T3, huNav1.8α (human, UniProt Q9Y5Y9 1-1956).
T3 construct: also called huNav1.8 (alpha subunit)
Described as above.

A further experiment addresses T4, huNav1.6α (human, UniProt Q9UQD0 1-1980).
T4 construct: also called huNav1.6 (alpha subunit)
The experiment is described as above.

A further experiment deals with T5, huNav1.5α (human, UniProt Q14524 1-2016).
T5 construct: also called huNav1.5 (alpha subunit)
The experiment is described as above.

The target in another experiment is T6, huNav1.4α (human, UniProt P35499 1-1836).
T6 construct: also called huNav1.4 (alpha subunit)
The description is as above.

A further experiment deals with T7, huNav1.3α (human, UniProt Q9NY46 1-2000).
T7 construct: also called huNav1.3 (alpha subunit)
The experiment is described as above.

The target in experiment [3] is T8, huNav1.7α+β1 (human, UniProt Q15858 1-1988; Q07699 19-218).
T8 construct: also called huNav1.7-beta1; HEKa/β1
Nature of the experiment: binding FACS, HEK293 cells. On the procedure: (§2) Binding of the ISVDs to cell-expressed Nav1.7α was detected via murine anti-Flag (Sigma, catalog #F1804). Briefly, cells were resuspended in FACS buffer (PBS, 10% FBS, NaN₃) and transferred to a 96-well V-bottom plate at 1×10^5 cells/well. Purified FLAG3-tagged ISVD was diluted in FACS buffer and added to the cells for 30 minutes at 4° C. […] Prior to the read-out, the samples were resuspended in 1 μg/mL propidium iodide (Sigma, catalog #P4170) to exclude dead cells. Between each step, the cells were centrifuged for 5 minutes at 200 grams and washed with 100 μL/well FACS buffer.
(§3) Crude periplasmic extracts containing ISVDs from phage display selections (as described above) were screened in FACS for binding to huNav1.7α but not to huNav1.5a. […] As used in Table 8, the drawings, and throughout the description, Navβ1, Navβ2, and Navβ3 are human homologs unless specifically identified otherwise.

Experiment [4] has as its target T9, huNav1.7α+β1-β2-β3 (human, UniProt Q15858 1-1988; Q07699 19-218; O60939 30-215; Q9NY72 23-215).
T9 construct: 5N11S variant; also called huNav1.7-beta1-beta2-beta3; huNav1.7α+Navβ1-Navβ2-Navβ3
Put plainly: binding FACS, CHO FlpIn cells. Summed up:
as §1

Experiment [5] concerns the target T10, huNav157chimera14+β1-β2-β3 (human, UniProt Q07699 19-218; O60939 30-215; Q9NY72 23-215).
T10 construct: HEK FlpIn line; also called huNav157 chimera 14-beta1-beta2-beta3; Nav157ch14-β1-β2-β3
Put plainly: binding FACS, HEK FlpIn cells. On the procedure: as §2, §3

For a further experiment, the target named is T11, huNav1.5α+β1-β2-β3 (human, UniProt Q14524 1-2016; A5A6L6 19-218; O60939 30-215; Q2KI11 23-215).
T11 construct: in the cell P2A cleaves it into α, β1, β2, β3; also called huNav1.5-beta1-beta2-beta3
Put plainly: binding FACS, HEK FlpIn cells. On the procedure: as §2, §3

Experiment [6] addresses T9, huNav1.7α+β1-β2-β3. Nature of the experiment: binding FACS, HEK FlpIn cells. On the procedure:
as §2, §3

The target of the next experiment is T12, rhNav1.7α+β1-β2-β3 (rhesus monkey α subunit with human β …).
T12 construct: P2A cleaves it into α, β1, β2, β3; also called rhNav1.7-beta1-beta2-beta3
Put plainly: binding FACS, CHO FlpIn cells. On the procedure:
as §2, §3

Experiment [7] addresses T8, huNav1.7α+β1. Put plainly: binding FACS, HEKa/β1 cells. Summed up: as §1
Experiment [8] addresses T1, huNav1.7α. Nature of the experiment: binding FACS, HEKa cells. This is another data set of the same source.
In experiment [9] the target is T8, huNav1.7α+β1. Put plainly: binding FACS, HEKa/β1 cells. The source holds these as a separate data set.
Experiment [10] concerns the target T9, huNav1.7α+β1-β2-β3. Nature of the experiment: binding FACS, CHO FlpIn cells. On the procedure:
as §2, §3
The source holds these as a separate data set.

The target in experiment [11] is T13, huNav1.7α + β1 (human).
T13 construct: HEK293 cells; also called huNav1.7-beta1; huNav1.7-β1
Put plainly: binding FACS, HEK.

Experiment [12] has as its target T14, huNav1.7α (human, UniProt Q15858 1-1988).
T14 construct: HEK cells expressing the α subunit without β subunits; also called huNav1.7 (alpha-subunit); Human Nav1.7α
Nature of the experiment: binding FACS, HEK.

For experiment [13], the target named is T13, huNav1.7α + β1. Put plainly: cell-based or functional assay. The source holds these as a separate data set.
Experiment [14] addresses rhNav1.7α + β1-β2-β3 (rhesus monkey). Put plainly: cell-based or functional assay.
The target in experiment [15] is T13, huNav1.7α + β1. Nature of the experiment: cell-based or functional assay. The source holds these as a separate data set.
Experiment [16] has as its target rhNav1.7α + β1-β2-β3 (rhesus monkey). Nature of the experiment: cell-based or functional assay. This is another data set of the same source.
In experiment [17] the target is T15, huNav1.7α + β1-β2-β3 (human, UniProt Q15858 1-1988; A5A6L6 19-218; O60939 30-215; Q2KI11 23-215).
T15 construct: also called huNav1.7-beta1-beta2-beta3; huNav1.7-β1-β2-β3
Nature of the experiment: competition FACS vs EC25 of F103275B05(N93R), CHO FlpIn.

Experiment [18] deals with T15, huNav1.7α + β1-β2-β3. Put plainly: competition FACS vs EC25 of F103275B05(N93R), HEK FlpIn.
The target of experiment [19] is T14, huNav1.7α. Put plainly: cell-based or functional assay.
For experiment [20], the target named is rhNav1.7α + β1-β2-β3 (rhesus monkey). Nature of the experiment: cell-based or functional assay. The source holds these as a separate data set.
The target in a further experiment is Rhesus Nav1.7α (rhesus, UniProt Q15858 1-1988 (human entry)). Nature of the experiment: cell-based or functional assay.
Experiment [21] has as its target T15, huNav1.7α + β1-β2-β3. Put plainly: cell-based or functional assay.
For experiment [22], the target named is T13, huNav1.7α + β1. Nature of the experiment: competition FACS vs EC25 of F103275B05(N93R), HEK.
The target in experiment [23] is T14, huNav1.7α. Put plainly: competition FACS vs EC25 of F103275B05(N93R), HEK.
Experiment [24] addresses T16, rhNav1.7α + β1-β2-β3 (rhesus monkey).
T16 construct: also called rhNav1.7-beta1-beta2-beta3; rhNav1.7-β1-β2-β3
Put plainly: competition FACS vs EC40 of F103275B05(N93R), CHO FlpIn.

Read-outs that look alike come from different tables or passages of the source.

Data on seven molecules can be found in patent US20240002497A1 (Merck Sharp & Dohme, published 2024).

T4 sequence (Q9UQD0 whole entry): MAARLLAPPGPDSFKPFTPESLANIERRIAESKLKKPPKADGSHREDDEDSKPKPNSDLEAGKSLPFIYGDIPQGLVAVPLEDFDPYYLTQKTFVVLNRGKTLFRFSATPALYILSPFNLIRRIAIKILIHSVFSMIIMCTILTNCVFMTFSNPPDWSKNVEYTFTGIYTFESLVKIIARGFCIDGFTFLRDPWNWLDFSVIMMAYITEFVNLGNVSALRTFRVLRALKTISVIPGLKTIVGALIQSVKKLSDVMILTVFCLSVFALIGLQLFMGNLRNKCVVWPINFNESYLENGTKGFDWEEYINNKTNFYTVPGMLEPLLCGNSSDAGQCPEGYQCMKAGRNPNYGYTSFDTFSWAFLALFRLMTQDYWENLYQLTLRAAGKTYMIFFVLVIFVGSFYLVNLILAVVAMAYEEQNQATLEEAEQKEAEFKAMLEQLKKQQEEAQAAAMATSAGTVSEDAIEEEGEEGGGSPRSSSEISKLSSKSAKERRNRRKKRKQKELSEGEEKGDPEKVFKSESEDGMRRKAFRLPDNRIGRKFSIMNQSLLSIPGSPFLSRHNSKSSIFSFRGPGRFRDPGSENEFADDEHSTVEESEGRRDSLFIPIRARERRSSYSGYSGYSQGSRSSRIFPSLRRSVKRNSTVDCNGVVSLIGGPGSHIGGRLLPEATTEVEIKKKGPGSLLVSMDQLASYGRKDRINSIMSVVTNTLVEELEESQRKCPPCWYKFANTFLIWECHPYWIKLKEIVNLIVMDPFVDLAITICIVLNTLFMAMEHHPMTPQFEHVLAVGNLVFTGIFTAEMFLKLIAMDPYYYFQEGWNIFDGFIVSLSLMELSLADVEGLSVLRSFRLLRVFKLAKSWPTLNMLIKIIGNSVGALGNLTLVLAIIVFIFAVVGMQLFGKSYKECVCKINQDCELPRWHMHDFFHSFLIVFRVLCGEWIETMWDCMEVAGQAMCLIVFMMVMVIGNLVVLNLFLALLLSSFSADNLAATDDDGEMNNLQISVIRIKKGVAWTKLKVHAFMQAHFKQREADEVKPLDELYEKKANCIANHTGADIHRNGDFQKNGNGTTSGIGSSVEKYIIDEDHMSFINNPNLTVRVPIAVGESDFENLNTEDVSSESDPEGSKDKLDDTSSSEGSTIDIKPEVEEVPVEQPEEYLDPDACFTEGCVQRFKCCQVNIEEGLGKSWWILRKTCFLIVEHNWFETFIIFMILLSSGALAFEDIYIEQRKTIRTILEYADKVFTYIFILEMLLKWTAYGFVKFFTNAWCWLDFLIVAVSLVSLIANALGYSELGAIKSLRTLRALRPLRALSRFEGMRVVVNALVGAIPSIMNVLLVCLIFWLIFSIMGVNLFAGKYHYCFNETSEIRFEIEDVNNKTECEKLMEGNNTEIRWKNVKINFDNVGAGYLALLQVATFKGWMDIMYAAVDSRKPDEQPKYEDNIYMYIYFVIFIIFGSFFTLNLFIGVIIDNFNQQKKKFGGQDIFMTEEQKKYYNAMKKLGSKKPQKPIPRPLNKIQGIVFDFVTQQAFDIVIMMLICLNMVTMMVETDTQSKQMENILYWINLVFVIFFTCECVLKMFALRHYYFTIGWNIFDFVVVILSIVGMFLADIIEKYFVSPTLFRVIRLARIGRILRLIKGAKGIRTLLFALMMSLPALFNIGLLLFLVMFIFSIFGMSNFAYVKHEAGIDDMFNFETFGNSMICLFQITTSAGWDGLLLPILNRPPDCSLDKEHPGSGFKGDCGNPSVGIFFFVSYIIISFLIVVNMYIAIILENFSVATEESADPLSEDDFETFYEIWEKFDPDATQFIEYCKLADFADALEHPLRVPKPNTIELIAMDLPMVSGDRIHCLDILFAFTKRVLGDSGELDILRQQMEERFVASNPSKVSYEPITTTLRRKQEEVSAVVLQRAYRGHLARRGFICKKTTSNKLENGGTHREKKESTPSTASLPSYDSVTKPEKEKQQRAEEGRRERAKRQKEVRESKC
T7 sequence (Q9NY46 whole entry): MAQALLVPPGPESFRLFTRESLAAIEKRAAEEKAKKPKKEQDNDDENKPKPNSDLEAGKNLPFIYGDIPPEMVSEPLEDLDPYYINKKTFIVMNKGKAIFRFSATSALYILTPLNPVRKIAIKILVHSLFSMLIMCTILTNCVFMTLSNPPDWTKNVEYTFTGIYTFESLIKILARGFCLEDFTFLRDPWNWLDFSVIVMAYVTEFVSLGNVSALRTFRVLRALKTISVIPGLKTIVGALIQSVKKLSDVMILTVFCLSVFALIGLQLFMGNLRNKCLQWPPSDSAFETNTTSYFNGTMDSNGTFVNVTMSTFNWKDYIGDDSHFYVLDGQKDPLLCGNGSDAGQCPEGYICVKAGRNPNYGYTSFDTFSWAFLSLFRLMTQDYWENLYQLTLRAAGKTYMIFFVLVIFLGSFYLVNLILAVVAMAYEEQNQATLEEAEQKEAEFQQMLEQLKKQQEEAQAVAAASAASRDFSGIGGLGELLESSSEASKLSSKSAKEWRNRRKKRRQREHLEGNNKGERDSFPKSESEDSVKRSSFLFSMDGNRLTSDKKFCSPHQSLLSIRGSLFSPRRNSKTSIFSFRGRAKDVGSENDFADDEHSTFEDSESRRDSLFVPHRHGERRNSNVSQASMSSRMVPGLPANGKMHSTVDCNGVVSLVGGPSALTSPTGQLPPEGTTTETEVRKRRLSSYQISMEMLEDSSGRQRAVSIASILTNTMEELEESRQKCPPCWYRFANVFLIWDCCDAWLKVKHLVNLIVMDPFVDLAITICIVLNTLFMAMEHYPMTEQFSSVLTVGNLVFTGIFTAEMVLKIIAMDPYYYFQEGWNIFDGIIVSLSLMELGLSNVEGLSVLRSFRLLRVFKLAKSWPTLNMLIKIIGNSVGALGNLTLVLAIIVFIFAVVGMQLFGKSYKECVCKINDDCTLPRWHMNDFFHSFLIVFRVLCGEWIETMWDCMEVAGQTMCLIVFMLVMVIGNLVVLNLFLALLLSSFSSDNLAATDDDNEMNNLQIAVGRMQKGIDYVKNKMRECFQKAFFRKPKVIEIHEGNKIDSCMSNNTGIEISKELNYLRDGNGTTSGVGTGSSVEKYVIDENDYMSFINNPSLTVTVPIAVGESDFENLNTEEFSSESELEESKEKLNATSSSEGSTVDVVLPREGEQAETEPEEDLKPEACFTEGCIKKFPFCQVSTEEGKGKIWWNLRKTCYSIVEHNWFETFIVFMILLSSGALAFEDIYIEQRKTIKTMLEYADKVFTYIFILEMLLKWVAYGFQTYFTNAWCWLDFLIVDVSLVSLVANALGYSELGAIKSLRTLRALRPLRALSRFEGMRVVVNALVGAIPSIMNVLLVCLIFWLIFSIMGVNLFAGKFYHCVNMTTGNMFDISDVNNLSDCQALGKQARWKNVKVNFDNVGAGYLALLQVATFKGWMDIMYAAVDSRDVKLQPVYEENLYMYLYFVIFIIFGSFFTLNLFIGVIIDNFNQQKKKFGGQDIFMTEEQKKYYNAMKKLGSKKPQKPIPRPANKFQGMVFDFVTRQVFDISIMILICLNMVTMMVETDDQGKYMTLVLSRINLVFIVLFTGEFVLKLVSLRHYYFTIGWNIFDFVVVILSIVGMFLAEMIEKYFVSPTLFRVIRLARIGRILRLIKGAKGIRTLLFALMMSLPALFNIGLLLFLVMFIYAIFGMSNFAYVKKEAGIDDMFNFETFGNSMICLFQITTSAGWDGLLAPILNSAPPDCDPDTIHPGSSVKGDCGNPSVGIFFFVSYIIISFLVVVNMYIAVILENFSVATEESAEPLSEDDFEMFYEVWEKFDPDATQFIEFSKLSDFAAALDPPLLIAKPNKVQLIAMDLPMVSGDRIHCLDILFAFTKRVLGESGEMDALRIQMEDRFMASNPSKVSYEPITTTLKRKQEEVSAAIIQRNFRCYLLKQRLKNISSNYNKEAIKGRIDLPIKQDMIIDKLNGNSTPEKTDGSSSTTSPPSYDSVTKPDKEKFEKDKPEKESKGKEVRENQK

B1: F0103454D07 (parental)-FLAG-HIS6 (VHH)
VHH: EVQLVESGGGLVQPGGSLRLSCVASGGIININYIAWYRQTPGKQRDLVARISSDDTIKYGDSVKGRFAMSRDKVKNMVHLQMNSLTTEDTGVYVCSALITPWTGDTRTYWGRGTLVTVSS
Consider B1, for which the “Qpatch IC50” value with huNav1.7α + β1 [1] is 38 nM.

B2: F0103387G05 (parental)-FLAG-HIS6 (VHH)
VHH: EVQLVESGGGLVQAGGSLRLSCDASGRILRIGYMRWHRQGAGKQREFVARITDDSATDYADSVKGRFTISRDNAKNTVYLQMNNLNPEDTAVYYCEALVTASVRGGSIHSGTYWGRGTLVTVSS
For the molecule B2, the EC50 amounted to 2.7 nM with huNav1.7α [2]; 1.2 nM with huNav1.7α+β1 [3]; 4.7 nM with huNav1.7α+β1-β2-β3 [4]; 3.6 nM in experiment [5]; 3.1 nM with huNav1.7α+β1-β2-β3 [6]; 1.7 nM with huNav1.7α+β1 [7]. The binding result with huNav1.2α, in the experiment with huNav1.1α, in the experiment with huNav1.8α, with huNav1.6α, in the experiment with huNav1.5α and in the experiment with huNav1.4α was “no binding” in each case. For the same molecule, the binding result with huNav1.3α, in the experiment with huNav1.5α+β1-β2-β3 and with rhNav1.7α+β1-β2-β3 was “no binding” throughout.

B3: F0103362B08 (parental)-FLAG-HIS6 (VHH)
VHH: EVQLVESGGGLVQAGGSLRLSCAASVRPFSTSAMGWFRQAPEKEREAVAGILWNGIVTYYADSVKGRFTISRDNAKNEVYLQMNKLKPEDTAVYYCALDRDYGGRSFSAYEYEYWGQGTLVTVSS
B3: in the experiment with huNav1.7α + β1 [1], the “Qpatch IC50” value is 1 nM.

B4: F0103275B05 (parental)-FLAG-HIS6 (VHH)
VHH: EVQLVESGGGLVQPGGSLRLSCAASGSIFNINSMAWYRRAPGKQRELVASSTNGGSTNYADSVKGRFTISRDNAKRVYLQMNSLTPEDTAVYYCNALLQPSIYDISRTYWGQGTLVTVSS
notes: also called F01033275B05
As to B4, the EC50 is 10 nM with huNav1.7α [8]; 48 nM with huNav1.7α+β1 [9]; 28 nM in the experiment with huNav1.7α+β1 [3]; 39 nM in [5]; 37 nM with huNav1.7α+β1-β2-β3 [6]; 27 nM with huNav1.7α+β1-β2-β3 [10]. In addition, the binding result in the experiment with huNav1.2α, in the experiment with huNav1.1α, with huNav1.8α, with huNav1.6α, in the experiment with huNav1.5α and in the experiment with huNav1.4α was “no binding” throughout. For the same molecule, the binding result in the experiment with huNav1.3α and with huNav1.5α+β1-β2-β3 was “no binding” each time.

B5: 66ASP (Fc fusion)
chain: EVQLVESGGGLVQPGGSLRLSCAASGPVFNINSMAWYRRAPGKQRELVAYSTPGWDWNYADSVKGRFTISRDNAKRVYLQMNSLTPEDTAVYYCRWLLQPSIYDISRTYWGQGTLVTVSS
notes: also called F010300659-5GS-Fc; not shown: 5GS linker; Fc moiety
B5: the EC50 turned out to be 42 nM with huNav1.7α + β1 [11] and 61 nM with huNav1.7α [12]. Also, the entries for the “Qpatch IC50 [M], HEK cells” value with huNav1.7α + β1 [13] and in the experiment with rhNav1.7α + β1-β2-β3 [14] were 9.2e-08 M and 5.2e-08 M, respectively.

B6: F010300659 (VHH)
VHH: EVQLVESGGGLVQPGGSLRLSCAASGPVFNINSMAWYRRAPGKQRELVAYSTPGWDWNYADSVKGRFTISRDNAKRVYLQMNSLTPEDTAVYYCRWLLQPSIYDISRTYWGQGTLVTVSS
notes: also called F0103275B05(S27P, I28V, S50Y, N53P, G55W, S56D, T57W, N93R, A94W)-FLAG3 + HIS6
Regarding B6, the entries for the “Qpatch IC50” value with huNav1.7α + β1 [15] and in the experiment with rhNav1.7α + β1-β2-β3 [16] were 85 nM and 199 nM, respectively. Also, the figures for the EC50 with huNav1.7α + β1 [11] and with huNav1.7α [12] were 11 nM and 5.4 nM, respectively. In addition, the entries for the “Qpatch IC50 [M], HEK cells” value in the experiment with huNav1.7α + β1 [13] and in the experiment with rhNav1.7α + β1-β2-β3 [14] were 8.5e-08 M and 1.8e-07 M, respectively.

B7: F010302375 (bispecific antibody)
chain: DVQLVESGGGLVQPGGSLRLSCAASGSIFNINSMAWYRRAPGKQRELVASSTNGGSTNYADSVKGRFTISRDNAKRVYLQMNSLTPEDTAVYYCRALLQPSIYDISRTYWGQGTLVTVSSGGGGSGGGGSGGGGSGGGGSGGGGSGGGGSGGGGSGGGGSGGGGSGGGGSEVQLVESGGGLVQAGGSLRLSCAASGRAFSTLAMGWFRQAPGKEREFVAAISRNGNNSATGDSLKGRFTISRDSTKSTVFLQMNTLKPEDTAVYYCAAISTPSASHPYVRKESYRYWGQGTQVTVSSGAADYKDHDGDYKDHDIDYKDDDDKGAAHHHHHH
notes: also called F0103275B05(E1D, N93R)-50GS-F0103478E09(L108Q)-FLAG3-HIS6
For B7, the IC50 in the experiment with huNav1.7α + β1-β2-β3 [17] came to 12 nM; in the experiment with huNav1.7α + β1-β2-β3 [18], 10 nM; with huNav1.7α + β1 [22], 4.3 nM; in the experiment with huNav1.7α [23], 110 nM; with rhNav1.7α + β1-β2-β3 [24], 6.5 nM. The “Qpatch IC50” value with huNav1.7α [19] is 123 nM; with rhNav1.7α + β1-β2-β3 [20] it was 2.8 nM; with Rhesus Nav1.7α, 93 nM; with huNav1.7α + β1-β2-β3 [21], 2.6 nM.
